For this experiment, the target named is T1, His-tagged CEACAM1 (human, UniProt P13688 35-428).
T1 construct: 45 kDa SPR analyte; also called CEACAM1-HIS; CEACAM1 analyte
T1 sequence: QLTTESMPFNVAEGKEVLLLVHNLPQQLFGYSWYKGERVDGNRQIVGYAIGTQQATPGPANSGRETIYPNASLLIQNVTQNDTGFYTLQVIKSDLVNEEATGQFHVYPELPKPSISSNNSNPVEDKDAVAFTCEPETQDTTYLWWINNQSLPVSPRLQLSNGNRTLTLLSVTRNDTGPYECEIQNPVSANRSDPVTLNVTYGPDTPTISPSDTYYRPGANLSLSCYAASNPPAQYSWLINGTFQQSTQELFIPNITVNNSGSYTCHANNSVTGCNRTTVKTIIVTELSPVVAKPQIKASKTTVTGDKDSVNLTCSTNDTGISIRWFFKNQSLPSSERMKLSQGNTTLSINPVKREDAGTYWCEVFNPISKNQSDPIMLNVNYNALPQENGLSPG
The experiment in a line: SPR single-cycle, supernatant IgG captured. As to the method:
In order to assess the binding of the humanized, affinity matured reformatted lead IgGs, single-cycle kinetics analysis was performed on crude supernatants using a Biacore T200 running Biacore T200 Control Software V2.0.1 and Biacore T200 Evaluation Software V3.0. Antibodies were diluted in HBS-P+ to a final concentration of 0.5 μg/ml. At the start of each cycle, antibodies were loaded onto Fc2, Fc3 and Fc4 of the Protein A chip. IgGs were captured at a flow rate of 10 μl/min to give an immobilisation level (RL) of ˜100 RU (a level calculated to obtain a Rₘₐₓ of ˜50-150 RU once the analyte is bound). The surface was then allowed to stabilize. Single-cycle kinetics data was obtained with CEACAM1 as the analyte at a flow rate of 80 μl/min to minimize any potential mass transfer effects. Multiple repeats with the parent (VH1/Vκ8 S29A) antibody were performed to check the stability of the surface and analyte over the kinetic cycles. The signal from the reference channel Fc1 (no antibody) was subtracted from that of Fc2, Fc3 and Fc4 to correct for differences in non-specific binding to the reference surface. A three point, two-fold dilution range from 70 nM to 280 nM CEACAM1 without regeneration between each concentration was used. The signal from each antibody blank run (no CEACAM1) was subtracted to correct for differences in surface stability. The association phase for the three injections of increasing concentrations of CEACAM1 was monitored for 80 seconds each time and a single dissociation phase was measured for 150 seconds following the last injection of CEACAM1. Regeneration of the Protein A surface was conducted using two injections of 10 mM glycine-HCL pH 1.5 followed by a stabilization period of 250 seconds.

Changes are numbered by the printed parent chain. Numbers in names are those of the source.

A word on the Kd: it is the concentration at which binding is half-saturated. For orientation: koff means the rate constant with which the complex falls apart. Usually kon stands for the second-order rate constant of association. Higher therefore signals faster complex formation.

B1: CP08A03/Vκ8 S29A (antibody, IgG4, V domains shown)
VH: EVQLLESGGGLVQPGGSLRLSCAASGFIFNNHAISWVRQAPGKGLEWVATISSGGTYTYYPDSVKGRFTISRDNSKNTLYLQMNSLKAEDTAMYYCARHDFDYDAAWFAYWGQGTLVTVSS
VL: EIVLTQSPATLSLSPGERATLSCRANSAVSYMYWYQQKPGQAPRPWIYLTSNRATGVPARFSGSGSGTDYTLTISSLEPEDFAVYYCQQWSSNPPTFGQGTKLEIK
notes: IgG4 (S241P), kappa
Take B1: binding was characterised by a dissociation constant (Kd) of 430 nM, the dissociation rate constant (koff) is 0.039 s⁻¹, the association rate constant (kon) amounted to 93000 M⁻¹ s⁻¹ and the “relative KD to parent” value was 1.3.

B2: CP08B03/Vκ8 S29A (antibody, IgG4, V domains shown)
VH: B1 VH with I28T, N30T, N31A
VL: B1 VL
notes: IgG4 (S241P), kappa
As to B2, the Kd worked out at 360 nM, the dissociation rate constant (koff) was 0.069 s⁻¹, the kon was 200000 M⁻¹ s⁻¹ and the “relative KD to parent” value stood at 1.6.

B3: CP08A08/Vκ8 S29A (antibody, IgG4, V domains shown)
VH: B1 VH with N30T, A33G, I34M
VL: B1 VL
notes: IgG4 (S241P), kappa
As to B3, the Kd was 1300 nM, the koff turned out to be 0.073 s⁻¹, the kon stood at 57000 M⁻¹ s⁻¹ and the “relative KD to parent” value was 0.4.

B4: CP09G03/Vκ8 S29A (antibody, IgG4, V domains shown)
VH: B1 VH with I28T, N31A, I34M
VL: B1 VL
notes: IgG4 (S241P), kappa
Turning to B4, the Kd came out at 350 nM, the off-rate constant (koff) was found to be 0.038 s⁻¹, the kon was determined as 110000 M⁻¹ s⁻¹ and the “relative KD to parent” value was found to be 1.5.

B5: CP09A04/Vκ8 S29A (antibody, IgG4, V domains shown)
VH: B1 VH with I28S, N31A, I34M
VL: B1 VL
notes: IgG4 (S241P), kappa
Turning to B5, the Kd amounted to 400 nM, the koff came out at 0.036 s⁻¹, the kon was 90000 M⁻¹ s⁻¹ and the “relative KD to parent” value was 1.4.

B6: CP08G10/Vκ8 S29A (antibody, IgG4, V domains shown)
VH: B1 VH with N30S, N31S, A33G, I34M, D104F, A105P, Y110F
VL: B1 VL
notes: IgG4 (S241P), kappa
On to B6, for which the affinity, expressed as Kd, was 630 nM; the koff was 0.055 s⁻¹; the association rate constant (kon) worked out at 87000 M⁻¹ s⁻¹; the “relative KD to parent” value was 0.9.

B7: CP08B11/Vκ8 S29A (antibody, IgG4, V domains shown)
VH: B1 VH with I28T, N30T, A33G, I34M
VL: B1 VL
notes: IgG4 (S241P), kappa
Take B7: the equilibrium dissociation constant (Kd) was determined as 610 nM, the koff was determined as 0.059 s⁻¹, the association rate constant (kon) stood at 96000 M⁻¹ s⁻¹ and the “relative KD to parent” value came to 0.9.

B8: VH1/CP08G01 (antibody, IgG4, V domains shown)
VH: B1 VH with N30S, N31S, A33G, I34M
VL: B1 VL with W90N, S91T, S92N, N93L, P95F
notes: IgG4 (S241P), kappa
For B8, the equilibrium dissociation constant (Kd) was determined as 400 nM, the dissociation rate constant (koff) turned out to be 0.047 s⁻¹, the on-rate constant (kon) came to 120000 M⁻¹ s⁻¹ and the “relative KD to parent” value is 1.5.

B9: CP09B02/Vκ8 S29A (antibody, IgG4, V domains shown)
VH: B1 VH with I28T, N30T, N31S
VL: B1 VL
notes: IgG4 (S241P), kappa
Take B9: binding was characterised by a dissociation constant (Kd) of 340 nM, the off-rate constant (koff) was determined as 0.04 s⁻¹, the association rate constant (kon) came out at 120000 M⁻¹ s⁻¹ and the “relative KD to parent” value was 1.6.

B10: CP08F07/Vκ8 S29A (antibody, IgG4, V domains shown)
VH: B1 VH with I28T, N30T, N31D
VL: B1 VL
notes: IgG4 (S241P), kappa
Regarding B10, the equilibrium dissociation constant (Kd) turned out to be 470 nM, the koff worked out at 0.081 s⁻¹, the kon amounted to 170000 M⁻¹ s⁻¹ and the “relative KD to parent” value was found to be 1.2.

B11: VH1/CP08G02 (antibody, IgG4, V domains shown)
VH: B1 VH with N30S, N31S, A33G, I34M
VL: B1 VL with S91T, S92N
notes: IgG4 (S241P), kappa
On to B11, for which the Kd worked out at 2300 nM, the off-rate (koff) amounted to 0.052 s⁻¹, the kon was 23000 M⁻¹ s⁻¹ and the “relative KD to parent” value came out at 0.3.

B12: CP08H01/Vκ8 S29A (antibody, IgG4, V domains shown)
VH: B1 VH with N30S, N31S, A33G, I34M, R98K, D100P, F101P, D104F
VL: B1 VL
notes: IgG4 (S241P), kappa
Consider B12, for which the dissociation constant Kd is 420 nM, the koff was found to be 0.087 s⁻¹, the association rate constant (kon) is 210000 M⁻¹ s⁻¹ and the “relative KD to parent” value stood at 1.3.

B13: VH1/CP09F05 (antibody, IgG4, V domains shown)
VH: B1 VH with N30S, N31S, A33G, I34M
VL: B1 VL with W90N, S91T, S92A, N93L, P95F
notes: IgG4 (S241P), kappa
On to B13, for which the affinity, expressed as Kd, was 1600 nM; the dissociation rate constant (koff) is 0.055 s⁻¹; the kon was determined as 35000 M⁻¹ s⁻¹; the “relative KD to parent” value came out at 0.4.

B14: CP08C04/Vκ8 S29A (antibody, IgG4, V domains shown)
VH: B1 VH with I28T, N30S, N31S, A33G, I34M
VL: B1 VL
notes: IgG4 (S241P), kappa
As for B14, the affinity, expressed as Kd, was 1200 nM; the koff stood at 0.26 s⁻¹; the on-rate (kon) was 220000 M⁻¹ s⁻¹; the “relative KD to parent” value stood at 0.5.

B15: CP08D01/Vκ8 S29A (antibody, IgG4, V domains shown)
VH: B1 VH with I28T, N31A, A33G, I34M
VL: B1 VL
notes: IgG4 (S241P), kappa
In the case of B15, the dissociation constant Kd turned out to be 300 nM, the koff stood at 0.043 s⁻¹, the kon worked out at 140000 M⁻¹ s⁻¹ and the “relative KD to parent” value was found to be 1.9.

B16: CP09D03/Vκ8 S29A (antibody, IgG4, V domains shown)
VH: B1 VH with I28T, N30S, N31S
VL: B1 VL
notes: IgG4 (S241P), kappa
Turning to B16, binding was characterised by a dissociation constant (Kd) of 310 nM, the off-rate constant (koff) was 0.033 s⁻¹, the on-rate (kon) is 110000 M⁻¹ s⁻¹ and the “relative KD to parent” value was determined as 1.8.

B17: CP08B04/Vκ8 S29A (antibody, IgG4, V domains shown)
VH: B1 VH with N30S, N31S, A33G, I34M, D104F, A105P, Y110L
VL: B1 VL
notes: IgG4 (S241P), kappa
B17: the Kd is 410 nM, the koff amounted to 0.049 s⁻¹, the kon was found to be 120000 M⁻¹ s⁻¹ and the “relative KD to parent” value was 1.4.

B18: CP08C01/Vκ8 S29A (antibody, IgG4, V domains shown)
VH: B1 VH with F27Y, I28S, N30S, A33G, I34M
VL: B1 VL
notes: IgG4 (S241P), kappa
Turning to B18, the Kd is 1200 nM, the koff came out at 0.1 s⁻¹, the kon is 82000 M⁻¹ s⁻¹ and the “relative KD to parent” value is 0.5.

B19: CP08A06/Vκ8 S29A (antibody, IgG4, V domains shown)
VH: B1 VH with F27Y, I28S, N30S, N31S, A33G, I34M
VL: B1 VL
notes: IgG4 (S241P), kappa
As for B19, the affinity, expressed as Kd, was 440 nM; the koff was 0.075 s⁻¹; the kon is 170000 M⁻¹ s⁻¹; the “relative KD to parent” value was 1.3.

B20: CP08D11/Vκ8 S29A (antibody, IgG4, V domains shown)
VH: B1 VH with F27Y, I28S, N30S, N31A, A33G, I34M
VL: B1 VL
notes: IgG4 (S241P), kappa
In the case of B20, binding was put at a Kd of 2000 nM, the off-rate (koff) worked out at 0.17 s⁻¹, the kon came to 86000 M⁻¹ s⁻¹ and the “relative KD to parent” value worked out at 0.3.

B21: CP09F03/Vκ8 S29A (antibody, IgG4, V domains shown)
VH: B1 VH with I28T, A33G, I34M
VL: B1 VL
notes: IgG4 (S241P), kappa
With B21, the affinity, expressed as Kd, was 1000 nM; the dissociation rate constant (koff) turned out to be 0.076 s⁻¹; the on-rate constant (kon) was 74000 M⁻¹ s⁻¹; the “relative KD to parent” value worked out at 0.5.

B22: CP08B01/Vκ8 S29A (antibody, IgG4, V domains shown)
VH: B1 VH with I28T, N30S, N31A, I34M
VL: B1 VL
notes: IgG4 (S241P), kappa
With B22, the affinity, expressed as Kd, was 610 nM; the koff was found to be 0.044 s⁻¹; the kon was found to be 72000 M⁻¹ s⁻¹; the “relative KD to parent” value was 0.9.

B23: CP09E03/Vκ8 S29A (antibody, IgG4, V domains shown)
VH: B1 VH with I28T, N30S, N31A
VL: B1 VL
notes: IgG4 (S241P), kappa
B23: the Kd was determined as 400 nM, the koff is 0.037 s⁻¹, the kon stood at 110000 M⁻¹ s⁻¹ and the “relative KD to parent” value came to 1.6.

B24: CP08B06/Vκ8 S29A (antibody, IgG4, V domains shown)
VH: B1 VH with I28S, N31S
VL: B1 VL
notes: IgG4 (S241P), kappa
On to B24, for which the affinity, expressed as Kd, was 420 nM; the koff came to 0.044 s⁻¹; the kon came to 110000 M⁻¹ s⁻¹; the “relative KD to parent” value was determined as 1.3.

For the origin of these results see patent US20250074980A1 (BRIGHAM AND WOMEN S HOSPITAL, published 2025).
